Source: patent US20160168247A1 (published 2016)

Columns and labels:
[1] = target: T1, human CD3 (on the human T-cell line Jurkat or on human T-cells) (human, UniProt P09693 23-182; P20963 22-164); assay: FACS binding; Fig 1B
[2] = target: T2, HSC-F (cynomolgus monkey, UniProt Q95LI8 22-171; Q95LI7 23-181); assay: FACS binding
T2 chain: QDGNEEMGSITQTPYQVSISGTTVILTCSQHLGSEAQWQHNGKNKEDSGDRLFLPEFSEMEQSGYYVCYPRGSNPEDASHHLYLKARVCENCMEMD

[3] = target: T1, human CD3 (on the human T-cell line …); assay: FACS binding
[4] = target: T2, HSC-F; assay: FACS binding
[5] = target: T1, human CD3 (on the human T-cell line …); assay: FACS binding; remark: listed apart in the source
[6] = target: T1, human CD3 (on the human T-cell line …); assay: FACS binding; Fig 1A
[7] = target: T2, HSC-F; assay: FACS binding; Fig 2A

T1 sequence (chain, as listed by the source, chain 1 of 4): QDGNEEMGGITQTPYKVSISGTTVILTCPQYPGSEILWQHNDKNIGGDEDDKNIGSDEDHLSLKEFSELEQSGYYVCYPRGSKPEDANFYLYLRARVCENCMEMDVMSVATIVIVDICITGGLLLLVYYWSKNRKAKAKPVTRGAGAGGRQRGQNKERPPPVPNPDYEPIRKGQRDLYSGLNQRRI
T1 sequence (chain, as listed by the source, chain 2 of 4): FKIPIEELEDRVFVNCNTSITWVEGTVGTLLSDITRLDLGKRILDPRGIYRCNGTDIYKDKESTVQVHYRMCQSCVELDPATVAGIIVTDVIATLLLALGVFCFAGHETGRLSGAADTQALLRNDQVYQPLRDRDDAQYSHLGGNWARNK
T1 sequence (P09693 23-182, chain 3 of 4): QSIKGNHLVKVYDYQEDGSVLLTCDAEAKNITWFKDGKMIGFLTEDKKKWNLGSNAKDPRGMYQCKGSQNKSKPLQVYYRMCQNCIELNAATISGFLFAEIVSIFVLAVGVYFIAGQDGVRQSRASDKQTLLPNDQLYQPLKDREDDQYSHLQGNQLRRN
T1 sequence (P20963 22-164, chain 4 of 4): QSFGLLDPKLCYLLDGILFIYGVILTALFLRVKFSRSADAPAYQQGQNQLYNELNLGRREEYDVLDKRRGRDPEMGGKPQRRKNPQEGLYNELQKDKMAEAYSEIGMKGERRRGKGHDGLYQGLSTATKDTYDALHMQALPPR

B1: bsIgG1 CD3×HER2 (bispecific antibody, V domains shown)
VH 1: EVKLLESGGGLVQPKGSLKLSCAASGFTFNTYAMNWVRQAPGKGLEWVARIRSKYNNYATYYADSVKDRFTISRDDSQSILYLQMNNLKTEDTAMYYCVRHGNFGNSYVSWFAYWGQGTLVTVSA
VL 1: QAVVTQESALTTSPGETVTLTCRSSTGAVTTSNYANWVQEKPDHLFTGLIGGTNKRAPGVPARFSGSLIGDKAALTITGAQTEDEAIYFCALWYSNLWVFGGGTKLTVL
VH 2: QVQLVQSGAEVKKPGASVKVSCKASGYTFTNYGISWVRQAPGQGLEWMGWLSAYSGNTIYAQKLQGRVTMTTDTSTTTAYMELRSLRSDDTAVYYCARDRIVVRPDYFDYWGQGTLVTVSS
VL 2: EIVLTQSPATLSLSPGERATLSCRASQSVSSYLAWYQQKPGQAPRLLIYDASNRATGIPARFSGSGSGTDFTLTISSLEPEDFAVYYCQQRSNWPRTFGQGTKVEIK
[1]
  EC50: 0.68 µg/mL

B2: bsIgG1-huCD3-H4L1xHER2-LFLEDA (bispecific antibody, V domains shown)
VH 1: EVKLVESGGGLVKPGRSLRLSCAASGFTFNTYAMNWVRQAPGKGLEWVARIRSKYNNYATYYADSVKDRFTISRDDSKSILYLQMNSLKTEDTAMYYCVRHGNFGNSYVSWFAYWGQGTMVTVSS
VL 1: not shown
VH 2: QVQLVQSGAEVKKPGASVKVSCKASGYTFTNYGISWVRQAPGQGLEWMGWLSAYSGNTIYAQKLQGRVTMTTDTSTTTAYMELRSLRSDDTAVYYCARDRIVVRPDYFDYWGQGTLVTVSS
VL 2: EIVLTQSPATLSLSPGERATLSCRASQSVSSYLAWYQQKPGQAPRLLIYDASNRATGIPARFSGSGSGTDFTLTISSLEPEDFAVYYCQQRSNWPRTFGQGTKVEIK
[2]
  EC50: 0.36 µg/mL

B3: bsIgG1-huCD3-H3L3×HER2-LFLEDA (bispecific antibody, V domains shown)
VH 1: EVKLVESGGGLVKPGRSLRLSCAASGFTFNTYAMNWVRQAPGKGLEWVARIRSKYNNYATYYADSVKDRFTISRDDSKSILYLQMNSLKTEDTAMYYCVRHGNFGNSYVSWFAYWGQGTLVTVSS
VL 1: QAVVTQEPSFSVSPGGTVTLTCRSSTGAVTTSNYANWVQQTPGQAFRGLIGGTNKRAPGVPARFSGSILGNKAALTITGAQADDESDYYCALWYSNLWVFGGGTKLTVL
VH 2: QVQLVQSGAEVKKPGASVKVSCKASGYTFTNYGISWVRQAPGQGLEWMGWLSAYSGNTIYAQKLQGRVTMTTDTSTTTAYMELRSLRSDDTAVYYCARDRIVVRPDYFDYWGQGTLVTVSS
VL 2: EIVLTQSPATLSLSPGERATLSCRASQSVSSYLAWYQQKPGQAPRLLIYDASNRATGIPARFSGSGSGTDFTLTISSLEPEDFAVYYCQQRSNWPRTFGQGTKVEIK
[3]
  EC50: 0.74 µg/mL

B4: IgG1-huCD3-H4L3-LFLEDA (antibody, V domains shown)
VH: EVKLVESGGGLVKPGRSLRLSCAASGFTFNTYAMNWVRQAPGKGLEWVARIRSKYNNYATYYADSVKDRFTISRDDSKSILYLQMNSLKTEDTAMYYCVRHGNFGNSYVSWFAYWGQGTMVTVSS
VL: QAVVTQEPSFSVSPGGTVTLTCRSSTGAVTTSNYANWVQQTPGQAFRGLIGGTNKRAPGVPARFSGSILGNKAALTITGAQADDESDYYCALWYSNLWVFGGGTKLTVL
[4]
  EC50: 0.02 µg/mL
[5]
  EC50: 0.08 µg/mL

B5: bsIgG1-huCD3-H1L3×HER2-LFLEDA (bispecific antibody, V domains shown)
VH 1: EVKLVESGGGLVQPGGSLRLSCAASGFTFNTYAMNWVRQAPGKGLEWVARIRSKYNNYATYYADSVKDRFTISRDDSKSSLYLQMNNLKTEDTAMYYCVRHGNFGNSYVSWFAYWGQGTLVTVSS
VL 1: QAVVTQEPSFSVSPGGTVTLTCRSSTGAVTTSNYANWVQQTPGQAFRGLIGGTNKRAPGVPARFSGSILGNKAALTITGAQADDESDYYCALWYSNLWVFGGGTKLTVL
VH 2: QVQLVQSGAEVKKPGASVKVSCKASGYTFTNYGISWVRQAPGQGLEWMGWLSAYSGNTIYAQKLQGRVTMTTDTSTTTAYMELRSLRSDDTAVYYCARDRIVVRPDYFDYWGQGTLVTVSS
VL 2: EIVLTQSPATLSLSPGERATLSCRASQSVSSYLAWYQQKPGQAPRLLIYDASNRATGIPARFSGSGSGTDFTLTISSLEPEDFAVYYCQQRSNWPRTFGQGTKVEIK
[3]
  EC50: 0.58 µg/mL

B6: IgG1-huCD3-H4L1-LFLEDA (antibody, V domains shown)
VH: EVKLVESGGGLVKPGRSLRLSCAASGFTFNTYAMNWVRQAPGKGLEWVARIRSKYNNYATYYADSVKDRFTISRDDSKSILYLQMNSLKTEDTAMYYCVRHGNFGNSYVSWFAYWGQGTMVTVSS
VL: not shown
[4]
  EC50: 0.03 µg/mL
[5]
  EC50: 0.06 µg/mL

B7: bsIgG1 huCD3-H3L1×HER2-LFLEDA (bispecific antibody, V domains shown)
VH 1: EVKLVESGGGLVKPGRSLRLSCAASGFTFNTYAMNWVRQAPGKGLEWVARIRSKYNNYATYYADSVKDRFTISRDDSKSILYLQMNSLKTEDTAMYYCVRHGNFGNSYVSWFAYWGQGTLVTVSS
VL 1: not shown
VH 2: QVQLVQSGAEVKKPGASVKVSCKASGYTFTNYGISWVRQAPGQGLEWMGWLSAYSGNTIYAQKLQGRVTMTTDTSTTTAYMELRSLRSDDTAVYYCARDRIVVRPDYFDYWGQGTLVTVSS
VL 2: EIVLTQSPATLSLSPGERATLSCRASQSVSSYLAWYQQKPGQAPRLLIYDASNRATGIPARFSGSGSGTDFTLTISSLEPEDFAVYYCQQRSNWPRTFGQGTKVEIK
[1]
  EC50: 0.28 µg/mL
[3]
  EC50: 0.64 µg/mL

B8: IgG1-huCD3-H4L1 (antibody, V domains shown)
VH: EVKLVESGGGLVKPGRSLRLSCAASGFTFNTYAMNWVRQAPGKGLEWVARIRSKYNNYATYYADSVKDRFTISRDDSKSILYLQMNSLKTEDTAMYYCVRHGNFGNSYVSWFAYWGQGTMVTVSS
VL: not shown
[6]
  EC50: 0.05 µg/mL
[7]
  EC50: 0.26 µg/mL

B9: IgG1-huCD3-H1L2 (antibody, V domains shown)
VH: EVKLVESGGGLVQPGGSLRLSCAASGFTFNTYAMNWVRQAPGKGLEWVARIRSKYNNYATYYADSVKDRFTISRDDSKSSLYLQMNNLKTEDTAMYYCVRHGNFGNSYVSWFAYWGQGTLVTVSS
VL: QAVVTQEPSFSVSPGGTVTLTCRSSTGAVTTSNYANWVQQTPGQAFRGLIGGTNKRAPGVPARFSGSILGNKAALTITGAQADDESIYFCALWYSNLWVFGGGTKLTVL
[6]
  EC50: 0.08 µg/mL
[7]
  EC50: 0.31 µg/mL

B10: bsIgG1-huCD3-H4L1×HER2-LFLEDA (bispecific antibody, V domains shown)
VH 1: EVKLVESGGGLVKPGRSLRLSCAASGFTFNTYAMNWVRQAPGKGLEWVARIRSKYNNYATYYADSVKDRFTISRDDSKSILYLQMNSLKTEDTAMYYCVRHGNFGNSYVSWFAYWGQGTMVTVSS
VL 1: not shown
VH 2: QVQLVQSGAEVKKPGASVKVSCKASGYTFTNYGISWVRQAPGQGLEWMGWLSAYSGNTIYAQKLQGRVTMTTDTSTTTAYMELRSLRSDDTAVYYCARDRIVVRPDYFDYWGQGTLVTVSS
VL 2: EIVLTQSPATLSLSPGERATLSCRASQSVSSYLAWYQQKPGQAPRLLIYDASNRATGIPARFSGSGSGTDFTLTISSLEPEDFAVYYCQQRSNWPRTFGQGTKVEIK
[3]
  EC50: 0.62 µg/mL

B11: IgG1-huCD3-H1L3 (antibody, V domains shown)
VH: EVKLVESGGGLVQPGGSLRLSCAASGFTFNTYAMNWVRQAPGKGLEWVARIRSKYNNYATYYADSVKDRFTISRDDSKSSLYLQMNNLKTEDTAMYYCVRHGNFGNSYVSWFAYWGQGTLVTVSS
VL: QAVVTQEPSFSVSPGGTVTLTCRSSTGAVTTSNYANWVQQTPGQAFRGLIGGTNKRAPGVPARFSGSILGNKAALTITGAQADDESDYYCALWYSNLWVFGGGTKLTVL
[6]
  EC50: 0.06 µg/mL
[7]
  EC50: 0.28 µg/mL

B12: IgG1-huCD3-H1L3-LFLEDA (antibody, V domains shown)
VH: EVKLVESGGGLVQPGGSLRLSCAASGFTFNTYAMNWVRQAPGKGLEWVARIRSKYNNYATYYADSVKDRFTISRDDSKSSLYLQMNNLKTEDTAMYYCVRHGNFGNSYVSWFAYWGQGTLVTVSS
VL: QAVVTQEPSFSVSPGGTVTLTCRSSTGAVTTSNYANWVQQTPGQAFRGLIGGTNKRAPGVPARFSGSILGNKAALTITGAQADDESDYYCALWYSNLWVFGGGTKLTVL
[4]
  EC50: 0.03 µg/mL
[5]
  EC50: 0.11 µg/mL

B13: IgG1-huCD3-H3L3-LFLEDA (antibody, V domains shown)
VH: EVKLVESGGGLVKPGRSLRLSCAASGFTFNTYAMNWVRQAPGKGLEWVARIRSKYNNYATYYADSVKDRFTISRDDSKSILYLQMNSLKTEDTAMYYCVRHGNFGNSYVSWFAYWGQGTLVTVSS
VL: QAVVTQEPSFSVSPGGTVTLTCRSSTGAVTTSNYANWVQQTPGQAFRGLIGGTNKRAPGVPARFSGSILGNKAALTITGAQADDESDYYCALWYSNLWVFGGGTKLTVL
[4]
  EC50: 0.03 µg/mL
[5]
  EC50: 0.08 µg/mL

B14: bsIgG1-huCD3-H4L3×HER2-LFLEDA (bispecific antibody, V domains shown)
VH 1: EVKLVESGGGLVKPGRSLRLSCAASGFTFNTYAMNWVRQAPGKGLEWVARIRSKYNNYATYYADSVKDRFTISRDDSKSILYLQMNSLKTEDTAMYYCVRHGNFGNSYVSWFAYWGQGTMVTVSS
VL 1: QAVVTQEPSFSVSPGGTVTLTCRSSTGAVTTSNYANWVQQTPGQAFRGLIGGTNKRAPGVPARFSGSILGNKAALTITGAQADDESDYYCALWYSNLWVFGGGTKLTVL
VH 2: QVQLVQSGAEVKKPGASVKVSCKASGYTFTNYGISWVRQAPGQGLEWMGWLSAYSGNTIYAQKLQGRVTMTTDTSTTTAYMELRSLRSDDTAVYYCARDRIVVRPDYFDYWGQGTLVTVSS
VL 2: EIVLTQSPATLSLSPGERATLSCRASQSVSSYLAWYQQKPGQAPRLLIYDASNRATGIPARFSGSGSGTDFTLTISSLEPEDFAVYYCQQRSNWPRTFGQGTKVEIK
[3]
  EC50: 0.59 µg/mL

B15: IgG1-huCD3-H3L3 (antibody, V domains shown)
VH: EVKLVESGGGLVKPGRSLRLSCAASGFTFNTYAMNWVRQAPGKGLEWVARIRSKYNNYATYYADSVKDRFTISRDDSKSILYLQMNSLKTEDTAMYYCVRHGNFGNSYVSWFAYWGQGTLVTVSS
VL: QAVVTQEPSFSVSPGGTVTLTCRSSTGAVTTSNYANWVQQTPGQAFRGLIGGTNKRAPGVPARFSGSILGNKAALTITGAQADDESDYYCALWYSNLWVFGGGTKLTVL
[6]
  EC50: 0.02 µg/mL
[7]
  EC50: 0.11 µg/mL
